# From paper PMC9479004, “Cloning and characterization of a novel functional organic anion transporting polypeptide 3A1 isoform highly expressed in the human brain and testis” (Frontiers in Pharmacology, 2022)
# Substrate: CCN(CC)c1ccc2cc(/C=C/c3cc[n+](CCCN=[N+]=[N-])cc3S(=O)(=O)[O-])c(=O)oc2c1
# Assay: fluorescent dye uptake by flow cytometry, HEK-293 overexpressing cells
# Assay type: cell-based, Homo sapiens
# Settings: pH 7.4, 37 °C, 10 min, 5-400 µM ACPS, mock-subtracted
row,Protein,Km [µM]
1,"OATP3A1_V3 (Homo sapiens; E294D) (protein, full-length ORF from brain RNA, 697 residues, E294D polymorphism (rs1517618), untagged, lentiviral overexpression in HEK-293; C-terminal peptide (C)VLEATCAAGPQSLL) MQGKKPGGSSGGGRSGELQGDEAQRNKKKKKKVSCFSNIKIFLVSECALMLAQGTVGAYLVSVLTTLERRFNLQSADVGVIASSFEIGNLALILFVSYFGARGHRPRLIGCGGIVMALGALLSALPEFLTHQYKYEAGEIRWGAEGRDVCAANGSGGDEGPDPDLICRNRTATNMMYLLLIGAQVLLGIGATPVQPLGVSYIDDHVRRKDSSLYIGILFTMLVFGPACGFILGSFCTKIYVDAVFIDTSNLDITPDDPRWIGAWWGGFLLCGALLFFSSLLMFGFPQSLPPHSDPAMESEQAMLSEREYERPKPSNGVLRHPLEPDSSASCFQQLRVIPKVTKHLLSNPVFTCIILAACMEIAVVAGFAAFLGKYLEQQFNLTTSSANQLLGMTAIPCACLGIFLGGLLVKKLSLSALGAIRMAMLVNLVSTACYVSFLFLGCDTGPVAGVTVPYGNSTAPGSALDPYSPCNNNCECQTDSFTPVCGADGITYLSACFAGCNSTNLTGCACLTTVPAENATVVPGKCPSPGCQEAFLTFLCVMCICSLIGAMAQTPSVIILIRTVSPELKSYALGVLFLLLRLLGFIPPPLIFGAGIDSTCLFWSTFCGEQGACVLYDNVVYRYLYVSIAIALKSFAFILYTTTWQCLRKNYKRYIKNHEGGLSTTSEPDRIQNKERMTSCGRVLEATCAAGPQSLL",35
2,"OATP3A1_V2 (Homo sapiens; E294D) (protein, full-length ORF from brain RNA, 692 residues, E294D polymorphism (rs1517618), untagged, lentiviral overexpression in HEK-293) MQGKKPGGSSGGGRSGELQGDEAQRNKKKKKKVSCFSNIKIFLVSECALMLAQGTVGAYLVSVLTTLERRFNLQSADVGVIASSFEIGNLALILFVSYFGARGHRPRLIGCGGIVMALGALLSALPEFLTHQYKYEAGEIRWGAEGRDVCAANGSGGDEGPDPDLICRNRTATNMMYLLLIGAQVLLGIGATPVQPLGVSYIDDHVRRKDSSLYIGILFTMLVFGPACGFILGSFCTKIYVDAVFIDTSNLDITPDDPRWIGAWWGGFLLCGALLFFSSLLMFGFPQSLPPHSDPAMESEQAMLSEREYERPKPSNGVLRHPLEPDSSASCFQQLRVIPKVTKHLLSNPVFTCIILAACMEIAVVAGFAAFLGKYLEQQFNLTTSSANQLLGMTAIPCACLGIFLGGLLVKKLSLSALGAIRMAMLVNLVSTACYVSFLFLGCDTGPVAGVTVPYGNSTAPGSALDPYSPCNNNCECQTDSFTPVCGADGITYLSACFAGCNSTNLTGCACLTTVPAENATVVPGKCPSPGCQEAFLTFLCVMCICSLIGAMAQTPSVIILIRTVSPELKSYALGVLFLLLRLLGFIPPPLIFGAGIDSTCLFWSTFCGEQGACVLYDNVVYRYLYVSIAIALKSFAFILYTTTWQCLRKNYKRYIKNHEGGLSTSTEYQDIETEKTCPESHSPSEDSFVRS",31.7
3,"OATP3A1_V1 (Homo sapiens; E294D) (protein, full-length ORF from brain RNA, 710 residues, E294D polymorphism (rs1517618), untagged, lentiviral overexpression in HEK-293) MQGKKPGGSSGGGRSGELQGDEAQRNKKKKKKVSCFSNIKIFLVSECALMLAQGTVGAYLVSVLTTLERRFNLQSADVGVIASSFEIGNLALILFVSYFGARGHRPRLIGCGGIVMALGALLSALPEFLTHQYKYEAGEIRWGAEGRDVCAANGSGGDEGPDPDLICRNRTATNMMYLLLIGAQVLLGIGATPVQPLGVSYIDDHVRRKDSSLYIGILFTMLVFGPACGFILGSFCTKIYVDAVFIDTSNLDITPDDPRWIGAWWGGFLLCGALLFFSSLLMFGFPQSLPPHSDPAMESEQAMLSEREYERPKPSNGVLRHPLEPDSSASCFQQLRVIPKVTKHLLSNPVFTCIILAACMEIAVVAGFAAFLGKYLEQQFNLTTSSANQLLGMTAIPCACLGIFLGGLLVKKLSLSALGAIRMAMLVNLVSTACYVSFLFLGCDTGPVAGVTVPYGNSTAPGSALDPYSPCNNNCECQTDSFTPVCGADGITYLSACFAGCNSTNLTGCACLTTVPAENATVVPGKCPSPGCQEAFLTFLCVMCICSLIGAMAQTPSVIILIRTVSPELKSYALGVLFLLLRLLGFIPPPLIFGAGIDSTCLFWSTFCGEQGACVLYDNVVYRYLYVSIAIALKSFAFILYTTTWQCLRKNYKRYIKNHEGGLSTSEFFASTLTLDNLGRDPVPANQTHRTKFIYNLEDHEWCENMESVL",37.7
